The target of experiment [1] is T1, CD20 (UniProt P11836 1-297, limits assumed).
T1 construct: Used in the Octet assay with Protein A biosensors
T1 sequence (looked up): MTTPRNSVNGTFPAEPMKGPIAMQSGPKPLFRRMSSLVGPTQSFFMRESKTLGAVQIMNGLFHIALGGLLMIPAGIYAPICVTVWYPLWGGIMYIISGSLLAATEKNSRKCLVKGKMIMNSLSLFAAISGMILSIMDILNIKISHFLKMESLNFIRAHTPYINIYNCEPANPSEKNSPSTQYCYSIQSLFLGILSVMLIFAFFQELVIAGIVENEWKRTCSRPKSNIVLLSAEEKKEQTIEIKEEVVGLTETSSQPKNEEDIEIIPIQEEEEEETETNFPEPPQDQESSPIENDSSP
The experiment in a line: Octet bio-layer interferometry, Protein A biosensors, 1:1 global fit. On the technique in general: Biolayer interferometry detects binding as a change in optical thickness at a sensor tip.

The target of experiment [2] is T1, CD20. The experiment in a line: Octet bio-layer interferometry, Protein A biosensors.

This passage reports Kd results from patent publication US20230128688A1 (published 2023).

B1: III-1 (CD20×CD3; rituximab×SP34 scFv) (bispecific antibody)
chain 1: QVQLQQPGAELVKPGASVKMSCKASGYTFTSYNMHWVKQTPGRGLEWIGAIYPGNGDTSYNQKFKGKATLTADKSSSTAYMQLSSLTSEDSAVYYCARSTYYGGDWYFNVWGAGTTVTVSA
chain 2: QIVLSQSPAILSASPGEKVTMTCRASSSVSYIHWFQQKPGSSPKPWIYATSNLASGVPVRFSGSGSGTSYSLTISRVEAEDAATYYCQQWTSNPPTFGGGTKLEIK
chain 3: EVQLVESGGGLVQPGGSLKLSCAASGFTFNTYAMNWVRQAPGKGLEWVGRIRSKYNNYATYYADSVKGRFTISRDDSKNTLYLQMNSLRAEDTAVYYCVRHGNFGNSYVSWFAYWGQGTLVTVSSGGGGSGGGGSGGGGSQAVVTQEPSLTVSPGGTVTLTCGSSTGAVTTSNYANWVQQKPGQAPRGLIGGTNKRAPGVPARFSGSLLGGKAALTLSGAQPEDEAEYYCALWYSNLWVFGGGTKLTVLGSEQKLISEEDLGSGGGGSLPET
modifications: C-terminal LPETG sortase tag joined through the (G)5-PEG linker from I-53 to a lysine of rituximab
As a reminder, the Kd is the free concentration of one partner at which half of the binding sites on the other are occupied at equilibrium, for simple one-to-one binding. Low values mean higher affinity, high ones lower affinity. B1: the Kd was determined as 1.06 nM with CD20 [1] and 0.75 nM with CD20 [2].
